Experimental data from the RNAGym collection of RNA variant scans (doi:10.1073/pnas.2313332121).

B1: TPR t1 (parent)
chain: GACCAAUCUGCCCUCAGAGCUCGAGAACAUCUUCGGAUGCAGAGGAGGCAGGCUUCGGUGGCGCGAUAGCGCCAACGUCCUCAACCUCCAAUGCAUCCCACCACAUGAUGAUGCCUGAAGAGCCUUGGUUUUUUG

Variants of: B1
Test: polymerase ribozyme fitness, log enrichment relative to wild type (log ratio); higher = more active; in vitro selection for triplet polymerase activity
Procedure, shortened: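 A single round of triplicate in vitro selection, including frozen incubation at −7 °C, was applied to PCR-built, transcribed mutant libraries of each subunit of a heterodimeric triplet polymerase ribozyme. Illumina sequencing of input and output libraries retained genotypes with ≥10 input reads and ≥1 read per output. Fitness is the base-2 logarithm of genotype enrichment divided by wild-type enrichment, from inverse-variance-weighted replicate averages.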

Variant	polymerase ribozyme fitness (log ratio)
A5G U9C C40U C56U U59A	-0.739
C4U C11U C104U C115A	-2.94
C4G C8A C80U C115A G120A U125A	-2.71
A5G C79A C115G U125G U131A	-1.22
A5C C8U C34A C79U C101G	-3.49
C4G U9C A43G G47A C70U	-4.92
C4U G61A C89A	-1.4
A5U G63C	-0.837
C4U C72A A91G G117C	-5.33
A5U G44C C73U	-1.65
C4A U7A	-0.986
C4G G69A	-2.97
A5U G10A A37U U55G	-0.809
A5U C86A	-0.495
C4A U78C	-1.45
C4U C49U U78A	-1.36
C4U A41C	-1.67
C4U C13A A46U G52U C73A	-4.74
A5G A83U	-1.18
C4U C12A U59C A66C	-2.92
A5G U87C	-0.474
A5U C13U A16G G69C U92G C123A U132A	-2.65
C4G G45C C70A	-4.27
A5G G60A G120U	0.955

Variant	polymerase ribozyme fitness (log ratio)
A5C C13U C88A C123U	1.09
A5U A6U A46C C104U C123A	0.565
A5U C114A	-1.69
C4G C97A	-5.92
A5C A37U G69A C123A G128A	-4.31
A5U C94U	-1.16
A5C U112A C114A	-1.8
C4G C22U G23A A66U A83G C97G C99U U106A G113U C124A	-7.47
A5G G45A G69U C104A	-1.05
C4G U9G C13A C82U A111G	-2.04
A5C G35U C56U G63A C70U U109A G117C U125G U130A	-6.63
A5U A66U A75G C76A C94A G120A U130G	-5.41
A5C C12G U14A G63U	-2.95
A5U A68G C82G	-3.79
C4U U14A	-2.88
A5U C73A G122A U126G	-2.29
C4G C20G G61U G117A	-4.76
C4G A90G C104U	-0.701
A5U G52C C73A C101U U106A U109C G135U	-5.42
A5U A95C G120C	0.108
C4U C114A G128C	-4.42
A5U C64U C79U G110A A111G U130C	-0.201
A5C G39C C70U G113A G120A C123A	-2.68
A5U A18G C20G C82U C94U A111C U112G A121C	-6.26

Variant	polymerase ribozyme fitness (log ratio)
C4U C8A C12U C79G	-1.25
A5U C15G C72G A119G A121U	0.915
C4G G71A	-1.72
C4G C40G C115U	-3.42
C4U U9A C82A	0.0858
A5G G63U	-0.893
A5G G63C	-0.273
C4A G117C	-4.54
C4U C97G	-3.97
C4U A37U C40U A83G	-2.17
A5U A46U G47C A50G C53U C86A C115G	-5.37
A5U G44C G60U U96G G127A U131G	-3.9
C4U A6U G45A C80U C101A	-3.66
A5U C53U C64U U106A	-0.639
C4G A41U A46C U87G A91U C115A G135U	-4.36
C4U G45U	-1.35
C4G A5C G61U A84C U109A U131G	-5.51
C4G U9A C62G C89A C115A G117C	-5.76
C4A G69U	-0.0821
C4A G69C	-3.61
A5U C62A	-0.777
A5G C53U G71A G113A	-2.7
C4U G69C	-2.05
A5C C11G G44A C56A U112A	-0.571

Variant	polymerase ribozyme fitness (log ratio)
A5U A50U A105U A119G	-1.86
C4A U59C G69U C115U	-3.99
C4G C56G C64U	-3.26
C4A G93A	-1.73
C4U A100U G117U	-4.99
A5C A6U A50U C56U A121U	1.17
C4A U21G G44U C82A C124G	-3.89
C4U A18U	-2.35
A5G A27U A46G	-2.16
A5U A83U G120U U129C	-1.35
C4U G42A G45U G47A	-4.19
A5U G10U G45C G51A A118U G120A	-2.81
A5C U55G	-0.672
C4A U112A A119U C123U U125C	-0.636
A5U C12U	0.00871
A5C G69A U129A	-4.05
A5U A121U	1.1
A5C U9C C86U A100U G135U	-1.74
C4G C8G U9G U21G U96G A111U	-3.56
A5U G44A A74U C82G U87G	-4.13
C4G U9C C15A U55C C73A C79G	-2.6
A5C A46U	-1.95
A5G C15U C70U C101U C124U	-0.0911
A5G G51A C86G	-2.82

Variant	polymerase ribozyme fitness (log ratio)
A5U G47A G113U	-3.72
A5C G61A	-0.269
A5G C13G A37G	-1.28
A5G G63A U67G U96A C123U	-5.12
C4U C34G G57A U67C G69A C124U G127C	-6.05
A5C U106A	-0.572
A5U A18C G57U	-2.21
A5C C73A	-0.312
A5U G47A C124U U126A	0.649
C4A G127A	-1.82
A5C A24G U87C	-3.15
C4G A111U	-3.42
A5U C12U U21G A27C A46G A90G G120U	-2.99
C4G G44U U96A	-4.42
A5G G57A G63A	-2.06
C4G U125G	0.0157
C4U A41C C56A G63A	-4.61
C4U G120C	-0.0314
A5U C34G	-6.92
C4U U38G	-1.16
A5G C15U G93U G117U	-1.5
A5U A41C U55C U59C C82G G120C U125A	-2.81
C4U U129A	-2.07
A5G G44C A74U U96G	-2.57

Variant	polymerase ribozyme fitness (log ratio)
A5U C11G C94U C104A G110C	-5.6
A5G C82U	-0.0686
A5U A43G G44A G52C G63C C124U G128U	-4.22
A5G A43G C56U C80U	-2.61
A5C C34U G63C U129G	-4.67
A5G A6G G52A A83U	-2.69
A5G C8U A95C	-0.636
A5U C53U	-0.883
A5G G45A C104A	-2.92
C4U C8G U33G C85G C94U	-6
C4G G10U A18G U59G A83C U87A	-4.53
C4U G57A G61A	-0.861
C4U U54A C72G C82A C114A	-3.49
A5G G10A C72A A91U	-1.75
A5G C11A U81C	-1.86
C4U C70A	-2.42
C4U C70U	-0.878
A5C C94U G110A	-2.08
C4G G10A	-1.4
A5G G60A G117A G135C	-0.941
A5G C12G G42U	-0.303
A5C G17A	-4.76
A5G U9C U32C C40G G60U	-1.01
C4A U7G C31G C70G C86U U87C U112A	-5.92

Variant	polymerase ribozyme fitness (log ratio)
A5U A84G U96C G113U	-4.28
C4G G110A	-2.16
C4U C34A G71C A83G C98U U112A	-5.16
A5C A46U A83C C86G C114A G117A	-6.85
C4G C72G	-1.74
A5C C73G A84U	-2.25
A5U G61U C124A	1.19
A5G C88G	-1.27
C4U C8A C28U U59A	-2.29
A5G A6G C11U C28U G120U	-2.3
C4U C73U	-0.492
C4U G52C	-0.368
C4G C89A	-2.63
A5U C31U U112A	-3.97
C4U C15U	-1.62
A5C G51A U78C G113U U133G	-6.24
C4U C13U G19U A95G	-2.99
C4U U7C A43U C62G	-4.93
A5C C56U G69U G120A G135C	-1.06
A5U G10A C86U C102U G113A G128C	-5.52
C4G C115A	-3.11
A5U G61A	-0.0027
C4U C56G C70A	-3
